# Counter-ions that a name gives are not always drawn.
# How the values were obtained:
# TCPTP [1] = target: T1, TCPTP (Homo sapiens, UniProt P17706); experiment: Phosphatase assay with recombinant, purified TCPTP (diFMUP substrate); type: biochemical; set-up: For phosphatase assays with purified protein, full length TCPTP was incubated in phosphatase reaction buffer; GST (N); made in house; host or cells: E. coli BL21 pLysS; settings: FIG. 2B; for activation of TCPTP by small molecule compounds: preincubated with 0.2 μg/ml TCPTP 10 minutes RT, different concentrations
# T1 sequence (P17706 1-387 isoform P17706-2): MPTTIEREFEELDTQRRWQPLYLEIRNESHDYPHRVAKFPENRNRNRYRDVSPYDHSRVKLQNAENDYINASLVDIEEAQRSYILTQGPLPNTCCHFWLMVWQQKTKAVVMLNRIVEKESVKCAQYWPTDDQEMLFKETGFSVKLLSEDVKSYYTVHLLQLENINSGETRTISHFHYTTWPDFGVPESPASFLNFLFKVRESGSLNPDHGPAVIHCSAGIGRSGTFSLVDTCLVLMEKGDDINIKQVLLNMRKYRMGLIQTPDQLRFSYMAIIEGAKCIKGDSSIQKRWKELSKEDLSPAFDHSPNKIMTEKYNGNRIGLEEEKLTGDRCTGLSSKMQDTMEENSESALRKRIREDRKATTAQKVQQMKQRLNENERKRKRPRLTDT
# Experimental: Serum starved Hela cells were either left untreated on plastic, stimulated with 10% FBS for 30 min or detached and replated on collagen type I or poly-L-lysine (10 μg/ml, Sigma) coated tissue-culture plates for 1 h. When indicated cells were surface biotinylated as described^12. Cells were either lysed in Laemmli sample buffer and fractionated on SDS-PAGE for western blotting or lysed in lysis buffer and equal amounts of protein from each sample were precleared with protein G-Sepharose and subjected to immunoprecipitation. Antibodies (anti-TCPTP, Oncogene; anti-a1, anti-a5, anti-a6, all from Chemicon; anti-SHP-2, Santa Cruz) were incubated with protein G-Sepharose and immunoprecipitation was performed at 4° C. for 2 h. The immunoprecipitates were washed three times with cell lysis buffer. For co-precipitation assays, proteins were resolved on SDS-PAGE followed with western blotting or detection of biotin with Vectastain reagent (Vector). For phosphatase assays, immunoprecipitates were resuspended in phosphatase reaction buffer (25 mM Hepes pH 7.4, 50 mM NaCl, 1 mM DTT) and ⅓ of the reaction was subjected to western blotting and the remaining beads were assayed for phosphatase activity in triplicate using diFMUP (Molecular Probes) as a substrate and in the presence of serine/threonine phosphatase inhibitor cocktail (Sigma) according to manufacturers instructions. When indicate synthetic peptides were preincubated with the immunoprecipitates for 15 min prior to phosphatase assay reaction (α2 peptide […] (SEQ ID NO:6), a kind gift from Dr Heino). For phosphatase assays with purified protein, full length TCPTP was incubated in phosphatase reaction buffer in the presence or absence of TCPTP deletion mutant proteins and synthetic integrin cytoplasmic tail peptides as indicated. […] The phosphatase reaction was allowed to proceed for 10 minutes in RT and stopped with urea followed with measurement of umbelliferone fluorescence according to manufacturers instructions (Molecular Probes). Western blotting was performed with commercial antibodies raised against EGFR, EGFR(PY)845, 992 or 1068 (Cell Signalling Technologies), TCPTP (Oncogene) or tubulin (Santa Cruz Biotechnology). Specific binding of antibodies was detected with peroxidase-conjugated secondary antibodies and visualized by enhanced chemiluminescence detection.
# TCPTP [2] = target: T1, TCPTP; experiment: Pull-down competition: purified TCPTP with GST-α1cyt fusion protein; type: binding; set-up: purified full-length TCPTP was incubated in the lysis buffer with GST-fusion proteins; GST (N); made in house; host or cells: E. coli BL21 pLysS; settings: peptide 1 μg/ml, TCPTP 1 μg; FIG. 1F
# Experimental: α1cyt and a2cyt were subcloned into pGEX4T1 (Amersham Biosciences). Full length TCPTP (45 kD) and its deletion mutants were PCR-amplified from pCG-TC45 plasmid^11 and cloned into pGEX-6P-1. GST-fusion proteins were expressed in E. coli (BL21 pLysS) and purified using manufacturer's instructions (Amersham Biosciences). Fusion proteins were either used immobilized to Glutathione-sepharose, eluted with 25 mM glutathione or GST was cleaved using precision protease according to manufacturers instructions (Amersham Biosciences). For pull-down assays, Hela cells were lysed to lysis buffer (1% octylglycoside, 50 mM Tris-HCl pH 7.5, 150 mM NaCl, 1 mM MgCl2, complete protease inhibitor (Roche)), clarified with centrifugation 10 min 13000 rpm+4 C, precleared with glutathione-sepharose and incubated with immobilized GST-fusion proteins and washed 3 times with 1 ml on the same buffer. Bound proteins were resolved on SDS-PAGE and detected with western blot. Alternatively, purified full-length TCPTP was incubated in the lysis buffer with GST-fusion proteins as indicated in the presence or absence of synthetic integrin α1 cytoplasmic tail peptide (RPLKKKMEKRPLKKKMEK, (SEQ ID NO:5) Genemed Synthesis).
# SHP-2 = target: T2, SHP-2 (Homo sapiens, UniProt Q06124); experiment: Phosphatase assay of immunoprecipitated SHP-2 from HeLa lysates (diFMUP substrate); type: biochemical; settings: FIG. 2A
# T2 construct: endogenous in cells; host or cells: HeLa
# T2 sequence (Q06124 1-593): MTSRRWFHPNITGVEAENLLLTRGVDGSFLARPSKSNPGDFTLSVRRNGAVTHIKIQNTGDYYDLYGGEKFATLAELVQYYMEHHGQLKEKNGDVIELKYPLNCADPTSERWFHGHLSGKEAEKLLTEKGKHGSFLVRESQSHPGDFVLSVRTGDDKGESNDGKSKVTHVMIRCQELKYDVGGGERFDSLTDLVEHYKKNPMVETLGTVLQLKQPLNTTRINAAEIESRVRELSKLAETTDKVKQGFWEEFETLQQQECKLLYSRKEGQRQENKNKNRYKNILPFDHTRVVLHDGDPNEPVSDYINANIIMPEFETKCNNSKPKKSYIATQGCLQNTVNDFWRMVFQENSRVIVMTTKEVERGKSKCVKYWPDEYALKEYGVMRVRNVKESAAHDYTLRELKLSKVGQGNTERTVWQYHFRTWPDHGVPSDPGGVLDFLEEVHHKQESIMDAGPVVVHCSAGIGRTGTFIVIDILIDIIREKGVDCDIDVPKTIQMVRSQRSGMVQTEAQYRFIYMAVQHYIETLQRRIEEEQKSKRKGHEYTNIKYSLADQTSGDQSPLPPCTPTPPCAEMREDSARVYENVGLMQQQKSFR
# Experimental: (§1) Serum starved Hela cells were either left untreated on plastic, stimulated with 10% FBS for 30 min or detached and replated on collagen type I or poly-L-lysine (10 μg/ml, Sigma) coated tissue-culture plates for 1 h. When indicated cells were surface biotinylated as described^12. Cells were either lysed in Laemmli sample buffer and fractionated on SDS-PAGE for western blotting or lysed in lysis buffer and equal amounts of protein from each sample were precleared with protein G-Sepharose and subjected to immunoprecipitation. Antibodies (anti-TCPTP, Oncogene; anti-a1, anti-a5, anti-a6, all from Chemicon; anti-SHP-2, Santa Cruz) were incubated with protein G-Sepharose and immunoprecipitation was performed at 4° C. for 2 h. The immunoprecipitates were washed three times with cell lysis buffer. For co-precipitation assays, proteins were resolved on SDS-PAGE followed with western blotting or detection of biotin with Vectastain reagent (Vector). […] The phosphatase reaction was allowed to proceed for 10 minutes in RT and stopped with urea followed with measurement of umbelliferone fluorescence according to manufacturers instructions (Molecular Probes). […] Specific binding of antibodies was detected with peroxidase-conjugated secondary antibodies and visualized by enhanced chemiluminescence detection.
# HeLa cells = experiment: Microinjection of fluorescein diphosphate (FDP) and peptide into live HeLa cells, phosphatase activity; type: cell-based, human; settings: 1 mg/ml peptide co-injected with 1 mM FDP, 30 min; compared with α2 or PBS; FIG. 4A
# Experimental: Cells were plated on acid-washed glass coverslips coated with collagen type I, fibronectin or poly-L-lysine (10 μg/ml) and allowed to adhere for 1 h. Cells were washed in PBS and fixed with 4% paraformaldehyde for 10 min. For antibody staining, cells were permeabilized in PBS/0.1% Triton X-100 and washed with PBS/1% (w/v) BSA for blocking. Cells were stained with antibodies as indicated for 1 h at room temperature. Cells were then washed three times with PBS before detection with Alexa-488 or Alexa-555-conjugated anti-rabbit or anti-mouse antibodies (Molecular Probes). After washing in PBS and water, cells were mounted in Mowiol (100 mM Tris-HCl at pH 8.5, 10% (w/v) Mowiol (Calbiochem, San Diego, Calif.) and 25% (v/v) glycerol containing antifade (2.5% (w/v) 1,4-diazadicyclo-2.2.2-octane (Sigma)). Slides were examined using Zeiss inverted fluorescence microscope or a confocal laser scanning microscope (Axioplan 2 with LSM 510; Carl Zeiss Inc., Jena, Germany) equipped with 63×/1.4 Plan-Apochromat oil immersion objectives. Confocal images represent a single z-section of approximately 1.0 μm. Cytosolic microinjections with 1 mM FDP (Molecular probes) and 1 mg/ml of peptide in PBS were performed on Hela cells cultured on glass-bottom 3 cm plates. Fluorescence images from live cells were taken with identical settings and intensities were quantified using Zeiss Axioplan4 software.
# TCPTP [3] = target: T3, TCPTP (Homo sapiens, UniProt P17706); experiment: Phosphatase assay of immunoprecipitated TCPTP from HeLa lysates (diFMUP substrate); type: biochemical; settings: peptide preincubated with immunoprecipitate 15 min; FIG. 2A
# T3 construct: endogenous in cells; host or cells: HeLa
# T3 sequence (P17706 1-415): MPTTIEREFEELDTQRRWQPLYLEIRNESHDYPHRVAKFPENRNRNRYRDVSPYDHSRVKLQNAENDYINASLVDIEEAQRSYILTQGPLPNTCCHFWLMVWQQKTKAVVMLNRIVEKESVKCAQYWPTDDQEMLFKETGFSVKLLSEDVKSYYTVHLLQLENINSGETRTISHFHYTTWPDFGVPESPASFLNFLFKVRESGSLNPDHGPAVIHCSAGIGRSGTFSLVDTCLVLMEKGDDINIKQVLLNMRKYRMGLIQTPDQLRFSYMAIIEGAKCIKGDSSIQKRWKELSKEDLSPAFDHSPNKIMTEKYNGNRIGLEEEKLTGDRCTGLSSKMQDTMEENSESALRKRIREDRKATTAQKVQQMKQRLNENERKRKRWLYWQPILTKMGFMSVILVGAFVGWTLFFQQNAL
# Experimental: as §1
activation of TCPTP by small molecule compounds (TCPTP [1]),activation of SHP-2 phosphatase (SHP-2),increase of catalytic activity of immunoprecipitated TCPTP (TCPTP [3]),Compound,other results
–,not activated,2.95±0.48 fold,"synthetic α1 tail peptide: synthetic integrin α1 cytoplasmic tail peptide RPLKKKMEKRPLKKKMEK (SEQ ID NO:5), Genemed Synthesis (fusion protein)","competition with α1cyt for the association with TCPTP (TCPTP [2]): able to compete; phosphatase activity in live HeLa cells (FDP fluorescence) (HeLa cells): induced phosphatase activity; activation of recombinant, purified TCPTP by peptide (TCPTP [1]; TCPTP 0.15 μg/ml, different peptide concentrations): highly activated"
–,not activated,no effect,α2 tail peptide: synthetic α2 integrin cytoplasmic tail peptide KLGFFKRKYEKMTKNPDEIDETTELSS (SEQ ID NO:6) (fusion protein),–

# Further lines, the compound ahead of its results:
Compound,activation of TCPTP by small molecule compounds (TCPTP [1]),activation of SHP-2 phosphatase (SHP-2),increase of catalytic activity of immunoprecipitated TCPTP (TCPTP [3]),other results
"NCCC1CCCC(CCN)N1 (centres unmarked) [MDL-26,630 trihydrochloride]",able to activate TCPTP,–,–,–
O=C1c2c(O)ccc(O)c2C(=O)c2c(NCCNCCO)ccc(NCCNCCO)c21 [Mitoxantrone],able to activate TCPTP,–,–,–
N.N.N.N.N.N.N.N.N.N.N.N.N.N.[Cl-].[Cl-].[Cl-].[Cl-].[Cl-].[Cl-].[O-2].[O-2].[Ru+3].[Ru+3].[Ru+4] [Ruthenium Red],able to activate TCPTP,–,–,–
NCCCCNCCCN [Spermidine],able to activate TCPTP,–,–,–
